# Literature values, collected in paper PMC12186298, “Phase 1 clinical trial of eneboparatide, a novel PTH receptor 1 agonist” (Endocrine Connections, 2025).
# System: patients with hypoparathyroidism
# Details: not associated with increased elimination of phosphorus in urine; cited from earlier work
# Method: Hyperphosphataemia enhances the risk of long-term development of cardiovascular diseases that is particularly important in patients with renal insufficiency, but also exists in patients with normal renal function ([16]). […] This decrease in sPh was apparent after 14 days of treatment in connection with a reduction in the rate of renal reabsorption of phosphorus. The impact of eneboparatide on sPh was primarily observed within the first 12 h after dosing.
molecule,measurement,value
"PTH(1–84): parathyroid hormone (1–84) therapy, cited comparator (protein, UniProt P01270 32-115, looked up, Parathyroid hormone, parathyroid hormone (1–84) therapy, cited comparator) Parathyroid hormone: SVSEIQLMHNLGKHLNSMERVEWLRKKLQDVHNFVALGAPLAPRDAGSQRPRKKEDNVLVESHEKSLGEADKADVNVLTKAKSQ",sPh after the onset of therapy,decreased rapidly and significantly
